Assay [1] has as its target hemagglutinin-neuraminidase (HN) glycoprotein of Sendai virus (Sendai virus). The assay is described as follows: cell-based or functional assay.
Assay [2] has the same target. The assay is described as follows: flow cytometry on SV-infected 721.221 cells, no mAb. On the technique in general: A flow cytometer gives signals particle by particle.
Assay [3] deals with hemagglutinin (HA) of Influenza virus A/PR/8/34 (H1N1) (Influenza virus A/PR/8/34 (H1N1)) (UniProt P03452). The assay is described as follows: flow cytometry on IV-infected 1106mel cells, no mAb.
For assay [4] the target is unchanged. The assay is described as follows: flow cytometry, IV-infected vs uninfected 1106mel cells.
Assay [5] has the same target. The assay is described as follows: flow cytometry on IV-infected 1106mel cells pre-incubated with competitor H17-L2 (anti-HA).
For assay [6], the target named is hemagglutinin-neuraminidase (HN) glycoprotein of Sendai virus (Sendai virus). Put plainly: flow cytometry on SV-infected 721.221 cells pre-incubated with competitor TC-1D6 (anti-HN).
Assay [7] shares this target. The assay is described as follows: flow cytometry on SV-infected 721.221 cells pre-incubated with competitor TC-9C1 (anti-HN).
The target of assay [8] is hemagglutinin (HA) of Influenza virus A/PR/8/34 (H1N1) (Influenza virus A/PR/8/34 (H1N1)) (UniProt P03452). Put plainly: cell-based or functional assay.
The target in assay [9] is hemagglutinin-neuraminidase (HN) glycoprotein of Sendai virus (Sendai virus). The assay is described as follows: flow cytometry, 293T cells transfected with Sendai HN cDNA vs mock.
Assay [10] addresses hemagglutinin (HA) of Influenza virus A/PR/8/34 (H1N1) (Influenza virus A/PR/8/34 (H1N1)) (UniProt P03452). Put plainly: flow cytometry on IV-infected 1106mel cells pre-incubated with competitor H28-E23 (anti-HA).
The target of assay [11] is hemagglutinin-neuraminidase (HN) glycoprotein of Sendai virus (Sendai virus). The assay is described as follows: flow cytometry, SV-infected vs uninfected 721.221 cells.
Assay [12] has as its target hemagglutinin (HA) of Influenza virus A/PR/8/34 (H1N1) (Influenza virus A/PR/8/34 (H1N1)) (UniProt P03452). The assay is described as follows: flow cytometry on IV-infected 1106mel cells pre-incubated with NA2-1C1 (anti-NA, blocks neuraminidase activity).
Assay [13] has as its target hemagglutinin-neuraminidase (HN) glycoprotein of Sendai virus (Sendai virus). Put plainly: flow cytometry on SV-infected 721.221 cells pre-incubated with competitor TC-9A1 (anti-F).
Assay [14] shares this target. Put plainly: flow cytometry on SV-infected 721.221 cells pre-incubated with competitor 135.7 (anti-HN).

Substance “NKp46 receptor on NK cells (from UniProt O76036 22-304)” displayed a lysis of HN-transfected 293T cells by NK line NK-GAL (35S-release) in assay [1] greater than 4 fold.
With NKp46-Ig fusion protein (Fc fusion), the MFI NKp46-Ig binding in assay [2] stood at 74 MFI; in assay [3] it was 441 MFI; in assay [5], 145 MFI; in assay [6] it was 14 MFI; in assay [7], 18 MFI; in assay [10] it was 63 MFI. Moreover, the MFI NKp46-Ig binding in assay [12] came out at 980 MFI; in assay [13] it was 63 MFI; in [14] it was 22 MFI. In [4], the fold increase in binding on IV infection was 4 fold. For the same substance, in [8], the hemagglutination inhibition (IV-mediated agglutination of sheep erythrocytes) was 2 µM. The substance also returned a fold increase in staining on HN transfection in assay [9] of 2 fold. The same substance yielded a fold increase in staining on SV infection in assay [11] of 10 fold.
